From paper PMC11848828

What was measured:
[1] = molecular target: Human 14-3-3ζ protein (human) (UniProt P63104); test: ITC
[2] = molecular target: Human 14-3-3ζ protein (human) (UniProt P63104); test: real-time 1D 1H NMR

Sequence of UniProt P63104 (P63104 whole entry): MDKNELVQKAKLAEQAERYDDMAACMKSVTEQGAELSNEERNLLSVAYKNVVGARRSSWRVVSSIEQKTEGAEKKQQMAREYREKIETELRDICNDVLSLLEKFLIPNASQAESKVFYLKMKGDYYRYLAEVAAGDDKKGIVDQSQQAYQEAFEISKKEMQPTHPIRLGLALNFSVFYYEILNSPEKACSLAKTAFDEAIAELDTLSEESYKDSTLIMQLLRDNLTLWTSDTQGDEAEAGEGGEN

Substance | Kd [1] [µM] | dH [1] [kcal/mol] | also measured
PRLR W392A variant peptide | 4 | -8.17 | –
PRLR WT peptide (21-residue phosphorylated fragment of the human prolactin receptor intracellular domain, pThr391) | – | -5.62 | concentration of the cis isomer bound instantly (t0) [2]: 101 µM

The next lines start with results.

Kd [1] [µM] | dH [1] [kcal/mol] | Substance | also measured
28 | -3.08 | PRLR P393V variant peptide | –
13 | – | PRLR W392L variant peptide | –
– | -4.88 | PRLR W392Y variant peptide | Kd, two-sets-of-sites model, first set [1]: 0.4 µM; Kd, two-sets-of-sites model, second set [1]: 2.3 µM; dH of the cis proline isomer [1]: -4.64 kcal/mol; dH of the trans proline isomer [1]: -5.4 kcal/mol
